Consider 40 sequences from the nanobody polyreactivity screen of Harvey et al. (2022).

The data set is described as follows: yeast display, Sf9 membrane polyspecificity reagent, FACS + sequencing; frameworks hold sequencing errors. The method, boiled down:
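Galactose-induced (36–48 hours) yeast carrying a synthetic nanobody display library were exposed to 10% biotinylated, detergent-solubilized Sf9 membrane reagent at 4 °C for 1 hour. FACS followed streptavidin microbead enrichment, using low and high (top ~1%) gates for expression (anti-HA) and reagent binding (streptavidin). Colony PCR, MiSeq 2 × 250 sequencing and CDR-length filtering followed. Labels for polyreactivity reflect the gate of origin.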
On to “QVQLVESRGGLVQAGGSLRLSCAASGIIFYQYAMGWYRQAPGKERELVAAITRSGGSTYFADSVKGRFTISRDNAKNTVYLQMKSLKPEDTAVYYCAARPFHSGYEGYGYWGQGTQVTVSS”, for which the “polyreactivity (PSR sort gate)” value was “high polyreactivity”. In the case of “QVQLVESRGGLVQAGGSLRLSCAASGLTFKWYAMGWYRQAHGKERELVAAISRDGSTYYADSVKGRFTISRDNAKNTVYLQMNSLKPEDTAVYYCAAEPRSRRVLYDYWGQGTQVTVSS”, the “polyreactivity (PSR sort gate)” value is “high polyreactivity”.

With “QVQLVESRGGLVQAGGSLRLSCAASGNTFRIYTMGWYRQAPGKDRELVATITRRGGYTYYADSVKGRFTISRDNAKNTVYLQMNSLKPEDTAVYYCNALPRPSYTFDYWGQGTQVTVSS”, the “polyreactivity (PSR sort gate)” value is reported as “high polyreactivity”. Under “QVQLVESRGGLVQAGGSLRLSCAASGRINSRYAMGLSRQEPGKERELVAAISWNGGSTYYADSVKGRFTISRDNAMNTVYFQMNSLKPEDTAVYYCAAYRPGPYAAYGYWGQGTQVTVSS” stands “high polyreactivity”; under “QVQLVESRGGLVQAGGSLRLSCAASGRNFKANTMGWYRQAPGKERVVVAAITASGGTTYYADSVKGRFTISRDNAKNTVYLQMTSLKPEDTAVYYCAAAVWYRGWYRYEYWGQGSQVTVSS”, “low polyreactivity”. In the case of “QVQLVESRGGLVQAGGSLRLSCAASGRTFWYYAMGWYRQAPGKEMELVATITGSGGTTYYADSVKGRFTISRDNAKNTVYLQMNSLKREDTAVYYCAKEQHWYIYGPAEVDYWGQGTQVTVSS” it was “high polyreactivity”; in that of “QVQLVESRGGLVQAGGSLRLSCAASGRTIGLNAMGWYRQAPRKERELVASAITGGGDSTYYADSVKGRFTMSRDNAKNPVYLQMNSVKPEDTAVYYCAKRYSRGSQYDYWGQGTQVTVSS”, “high polyreactivity”; in that of “QVQLVESRGGLVQAGGSLRLSCAASGSIFGANAMGWYRQEPGKEMELVAAISTRGGRTYYADSVKGRFTISRDNAKNTVYLQMISLKPEDTAVYYCATSGGRPYTYEYWGQGTQVTVSS”, “high polyreactivity”. In the case of “QVQLVESRGGLVQAGGSLRLSCAASGSIFGFYAMGWYRQAPGKERELVAAISSDGGSTYYADSVKGRFTISRDNAKNTVYLQMNSLKPEDTAVYYCAAAHGSIYDSTYYEYYYWGQGTQVTVSS”, the “polyreactivity (PSR sort gate)” value is “low polyreactivity”.

With “QVQLVESRGGLVQAGGSLRLSCAASGSIFGYYTMGWYRQAPGKDRELVAAISARGGRTYYADSVKGRFTISRDNAKNTVYLLMNSLKPEDTAVYYCAKRVYRRLYTGGQNPYDYWGQGTQVTVSS”, the “polyreactivity (PSR sort gate)” value is recorded as “high polyreactivity”. Under “QVQLVESRGGLVQAGGSLRLSCAASGSIFLYYARGWYIQAPGKERELDAAISISGGRTYYADSVKGRFTISRDNSKNTVYIQMNSLKPEDTAVYYCATKGYTGYAYRYGYWGQGTQVTVSS” stands “high polyreactivity”; under “QVQLVESRGGLVQAGGSLRLSCAASGSIFPVYAMGWYRQATGKERELVASISSSGGRTYYADSVKGRFTISRDNAKNTVYLQMNSLKPEDTAVYYCAAGAFHGVFWYEYWGQGTQVTVSS”, “high polyreactivity”. Under “QVQLVESRGGLVQAGGSLRLSCAASGSTFLNYAMGWYRQAPGKERELVAAISGSTTRTYYAESVKGRFTISRDNAKNTVYLQMNSLKPEDTAVYYCAATRGRGGRDDYWGQGSQVTVSS” stands “high polyreactivity”; under “QVQLVESRGGLVQAGGSLRLSCAASGSTFRIKAMGWYRQAPGNERELFAAIRASGTSTYYADSVKGRFTISRDNGQNTVYLLMIRLKPEDTAVDYCAASAQQPVLGLSYYYWGQGTQVTVSS”, “high polyreactivity”. In the case of “QVQLVESRGGLVQAGGSLRLSCAASGSTLYLYALGWYRQAPGKERELVAAISQSGTRTYYADSVKGRFTISRDNAKNTVYLQMNSQKPEDTAVSYCAAGRYQPYSYDYWGQGTQVTVSS” it was “high polyreactivity”. With “QVQLVESRGGLVQAGGSLRLSCAASGYTFDANAMGWYRQAPGKERELVASISSISDSTDYADSVKGRFTISRDNAKNTVYLQMNSLKPVDTAVYYCARSDVKPGRQERDYWGQGTQVTVSS”, the “polyreactivity (PSR sort gate)” value is given as “low polyreactivity”.

With “QVQLVESRGGLVQAGGSLRLSCACSGGIFVKSAMGCYRKAPCKERELVAAISKRGGRTYYADSVKGRFTISRDNAKNTVYLQMNSLKPEDTAVYYCYADVGVEYDYWGQGTQVTVSS”, the “polyreactivity (PSR sort gate)” value is recorded as “high polyreactivity”. Consider “QVQLVESRGGLVQAGGSLRLSCPASGLIYVAYAMGWYRQAPGKERELVAAISRNGGSTYYADSVKGRFTISRDNAKNTVYLQMNSLKPEDTAVYYCAARYAYYTARYTQVKGLDYWGQGTQVTVSS”, for which the “polyreactivity (PSR sort gate)” value is given as “high polyreactivity”.

Take “QVQLVESRGGLVQAGGSLRLTCAASGFIFKGYAMGWYRQEPGTERELVAAISYSGGNTYYADSVKGRFTISRDNAKNTVYLQMNSLKPEDTAVYYCAVRKRKVLGMYYWGQGTQVTVSS”: the “polyreactivity (PSR sort gate)” value is “high polyreactivity”. For “QVQLVESRGVLVQAGGSLRLSCAASGRTFYYYAMGWYRQAPRKERELVAAINTRRTSTYYADSVKGRFTISRDNAKKTVYLQMNSLKPEDTAVYYCAVDPYGDSWEDWFRNYYYGYDYWGQGTQVTVSS”, the “polyreactivity (PSR sort gate)” value is reported as “low polyreactivity”. In the case of “QVQLVESSGGLVQAGGSLRLSCAASGFIFPLYTMGWYRQAPAKERELVAAISVTGGSTYYADSVKGRFTISRDNAKNTVYLQMNSLKPEDTAVYYCNAYLFFLNRVCSFDYWGQGTQVTVSS” it was “high polyreactivity”; in that of “QVQLVESSGGLVQAGGSLRLSCAASGFSFKRYAMGWYRQAPGTERELVAAINSGGSTNYADSVKGRFTMSRDNAKNTVYLQMNSLKPEDTAVYSCAASTPQYQYYYWGQGTQVTVSS”, “high polyreactivity”. Turning to “QVQLVESSGGLVQAGGSLRLSCAASGLTFDGYAMGWYRQAPGKEREIVAAITQSGGSTYYADSVKGRFTISRDNAKNTVYLQMNSLKPVDTAVYYCAADGVLIHISYFRVVDGGEDHWGQGTQVNVSS”, the “polyreactivity (PSR sort gate)” value is “low polyreactivity”.

On to “QVQLVESSGGLVQAGGSLRLSCAASGRTFTSNAMGWYRQAPGKERELVAAISNGGSTYYADSVKGRFTISRDNAKNTVYLQMNSLKPEDTAVYYCAAQYRVLWYSYYYWGQGTQVTVSS”, for which the “polyreactivity (PSR sort gate)” value is recorded as “high polyreactivity”. Under “QVQLVESSGGLVQAGGSLRLSCSASGRTFVWYDMGWYRQAPGKERELVAAITKRGTSTYYADSVKGRFTISRDNAKNTVYLQMNSLKPEDTAVYYCAVEYIYWFHCRSSFIYDYWGQGTQVTVSS” stands “low polyreactivity”; under “QVQLVESSGGLVQAGGSLRLTCAASGSTFTIYAIGWYRQAPRKERELVAVISSSGGSTYYADSVMGRFTISRDNAKNTVYLQMNSLKPEDTAVYYCAADTRYVGGYLTLYYWGQGTQVTVSS”, “low polyreactivity”. In the case of “QVQLVESVGCLVQAGGSLRLSCAASGSTFDYYAMGWYRQAPGKERELVAAITSTGRTYYADSVKGRFTISRDNAKNTVYLQMNSLKPEDTAVYYCAADLPWGPLFDYWGQGTQVTVSS” it was “low polyreactivity”; in that of “QVQLVESVGCLVQAGGSLRLSCASTGRTFTPYAMGWYRHRPGKESEFVPAIDTSGGSTYADSVKGRFTISRDNANNTVYLQMNSLKPEDTAVYYCATRGFYSWSYWYLWEYDYWGQGTQVTVSS”, “low polyreactivity”; in that of “QVQLVESVGCLVQAGGTLRLSCAATGRIFADYAMGWYRQAPGKERELVATITSGDRTYYADSVKGRFTTSRDNAKNTVYLQMNSLKPEDTAVYYCAAYKPWYVGLYPWYDYWGQGTQVTVSS”, “low polyreactivity”. In the case of “QVQLVESVGGLDQAGGSLPLSCAASGSTLAVYDMGWSRQAPGKESELVAAISTTGGRTYYADSVKGRFTISRDNSKNTVYLQMNRLKPEDTAVYYCNADAEDVIYYEYDYCGQGTQVTVSS” it was “low polyreactivity”; in that of “QVQLVESVGGLDQAGGSLRLSCAASGFTFYTNAMGWYRQAPGKEREFVAAISWSGTGTYYADSVKGRFTISRDNAKNTVYLQMYSLIPDDTAVYYCAARDRWRGGRKFDYWGQGTQVTVSS”, “high polyreactivity”; in that of “QVQLVESVGGLLQAGGSLRLSCAASGSTFYNYAMGWYRQAPGKERELVAAIRNGGGTNYADSVKGRFTISRDNAKNTVYLQMNSLKPEDTAVYYCSTRLDWRRTYGYWGQGTQVTVSS”, “low polyreactivity”. In the case of “QVQLVESVGGLVHAGGSLRLSCAASGSIFTKNAMGWYRHAPGKERELVAAITGSGGSTYYADSVKGRFTISRDNAKNTVYLQMNSLKPEDTALYYCAANFVFWSGAVYTRYDYWGQGTQVTVSS”, the “polyreactivity (PSR sort gate)” value is recorded as “high polyreactivity”.

Turning to “QVQLVESVGGLVQAGGRLRLSCAASGITFYSYTMGWYRQAPGKERELVAAISDNGGRTFYADSVKGRFTISRDNAKNTVYLQMNSLKPEDTAVYYCAASRRRAVDYWGQGTQVTVSS”, the “polyreactivity (PSR sort gate)” value was “low polyreactivity”. In the case of “QVQLVESVGGLVQAGGSLLLSCAAYGDISRYNTMGWYRQAPGKERELVPAITWSGGSTYADSVKGRFTISRDNAKNTVYLQMNSLKPEDTAVYYCAAGAYIWDNYSYRWYDYLGQGTQVTVSS” it was “high polyreactivity”; in that of “QVQLVESVGGLVQAGGSLRISCAASGRIFTHNVMGWYRQAPGKERELVAAISASGGSTYYADSVKGRFTISRDNAKNTVYLQMNSLKPEDTAVYYCNAGDYRTFYRRFDYWGQGTQVTVSS”, “low polyreactivity”.

On to “QVQLVESVGGLVQAGGSLRLICAASGSIFLDNAKGCYRQAPVKERELVSAISWGGGSTYYADSVKGRFTISRDNAKNTVYVQMNSLKPEDTAVYYCAAESYYYIRYFDYSRWMGYWGQGTQVTVSS”, for which the “polyreactivity (PSR sort gate)” value was “low polyreactivity”. In the case of “QVQLVESVGGLVQAGGSLRLICACSGLNFVSYAMGWYRQAPGKERELVAAINSRGSRTYYADSVKGRLTISRDNAKNTVYLQMNSLKPEDTALYYCAAGVIRYGGKEEYYYWGQGTQVTVSS” it was “high polyreactivity”; in that of “QVQLVESVGGLVQAGGSLRLSCAASGFILAVYVLGWYRQAPGKERELVAAISWSGGSTYYADSLKGRFTISRDNAKNTVYFKMNRLKPEYTAVYSCNTVAKSPVKYDYWGQGTQVTVSS”, “high polyreactivity”; in that of “QVQLVESVGGLVQAGGSLRLSCAASGFTFRKYAMGWYRQAPGKERELVAGISWSGGTTYYADSVKGRFTISRDNAKNTVYLQMNSLKPEDTAVYYCNAKRVQVFAGYSYDYWGQGTQVTVSS”, “high polyreactivity”.
